Measurements from patent US20200010567A1 (NEURIMMUNE, published 2020).

What was measured:
GR10: H-(GR)10HHHHHH-NH2 = target: T1, GR10: H-(GR)10HHHHHH-NH2 (C-terminal amide); test: indirect ELISA, His-tagged peptide coated at 50 ug/ml, antibody titrated
T1 peptide: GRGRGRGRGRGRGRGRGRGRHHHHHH
Protocol: (§1) 96-well microplates (Corning Incorporated, Corning, USA) were coated with dipeptide repeat protein peptides at a concentration of 50 μg/ml in coating buffer (15 mM Na₂CO₃, 35 mM NaHCO₃, pH 9.42). Non-specific binding sites were blocked for 1 h at room temperature with PBS/0.1% Tween®-20 containing 2% BSA (Sigma-Aldrich, Buchs, Switzerland). Primary antibodies were diluted to the indicated concentrations and incubated 1 h at room temperature, followed by incubation with a donkey anti-human IgG Fcγ-specific antibody conjugated with HRP (Jackson ImmunoResearch Laboratories, Inc., West Grove, USA). Binding was determined by measurement of HRP activity in a standard colorimetric assay. EC₅₀ values were estimated by non-linear regression using GraphPad Prism software (San Diego, USA).
(§2) High affinity binding was detected for poly-GA DPRs harboring 10 or 20 (GA)-repeats, reflected in an EC₅₀ in the subnanomolar or low nanomolar range (FIGS. 7A, 7C-7I).

[1] = target: T2, BSA-coupled (GA)15 DPR protein peptide (bovine, conjugated via a bifunctional linker (SMCC) to bovine serum albumin); test: indirect ELISA, BSA-coupled peptide coated, antibody titrated [also D00013 FIG. 3D]
T2 construct: also called BSA-(GA)15
Protocol: as §1, with “In brief, dipeptide repeat proteins were synthesized and purified by Schafer-N(Copenhagen, Denmark): (GA)₁₅: H-CHHHHHH(GA)₁₅-OH; (GP)₁₅: H-C(GP)₁₅-OH; (GR)₁₅: H-C(GR)₁₅-OH; (PA)₁₅: H-C(PA)₁₅-OH; (PR)₁₅: H—C(PR)₁₅-OH. DPR protein peptides were then conjugated via a bifunctional linker (SMCC) to bovine serum albumin (BSA). 96-well microplates” for “96-well microplates”, “coated with BSA-coupled or -uncoupled dipeptide repeat” for “coated with dipeptide repeat”, “concentration of either 5 μg/ml or 20 μg/ml in” for “concentration of 50 μg/ml in”
Target sequence in this assay (P02769 25-607 limits assumed): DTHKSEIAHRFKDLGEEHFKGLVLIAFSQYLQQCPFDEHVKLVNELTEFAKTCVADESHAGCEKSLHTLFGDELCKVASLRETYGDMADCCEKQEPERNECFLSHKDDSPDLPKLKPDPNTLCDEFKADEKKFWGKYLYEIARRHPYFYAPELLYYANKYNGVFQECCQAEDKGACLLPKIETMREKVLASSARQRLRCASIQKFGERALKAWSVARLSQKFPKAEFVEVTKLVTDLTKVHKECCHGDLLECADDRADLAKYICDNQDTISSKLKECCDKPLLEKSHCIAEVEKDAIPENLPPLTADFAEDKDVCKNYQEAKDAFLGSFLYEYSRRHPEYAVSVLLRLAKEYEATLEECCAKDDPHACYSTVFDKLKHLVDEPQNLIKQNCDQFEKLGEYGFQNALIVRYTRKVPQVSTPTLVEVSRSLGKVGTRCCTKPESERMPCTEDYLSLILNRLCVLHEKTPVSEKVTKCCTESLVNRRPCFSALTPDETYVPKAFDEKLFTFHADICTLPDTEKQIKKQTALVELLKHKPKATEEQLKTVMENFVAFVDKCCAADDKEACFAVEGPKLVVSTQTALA

GP10: H-(GP)10HHHHHH-NH2 = target: T3, GP10: H-(GP)10HHHHHH-NH2 (C-terminal amide); test: indirect ELISA, coated His-tagged peptide; indirect ELISA, peptide coated directly on the plate
T3 peptide: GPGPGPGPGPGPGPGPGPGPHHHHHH
Source text: (§3) In brief, dipeptide repeat proteins were synthesized and purified by Schafer-N (Copenhagen, Denmark): GA₂₀: H-(GA)₂₀HHHHHH-NH₂; GA₁₀: H-(GA)₁₀HHHHHH-NH₂; GA₆: H-(GA)₆HHHHHH-NH₂; GA₅: H-(GA)₅HHHHHH-NH₂; GA₄: H-(GA)₄HHHHHH-NH₂; GA₃: H-(GA)₃HHHHHH-NH₂; GA₂: H-(GA)₂HHHHHH-NH₂; GP₂₀: H-(GP)₂₀HHHHHH-NH₂; GP₁₀: H-(GP)₁₀HHHHHH-NH₂; GP₆: H-(GP)₆HHHHHH-NH₂; GP₅: H-(GP)₅HHHHHH-NH₂; GP₄: H-(GP)₄HHHHHH-NH₂; GP₃: H-(GP)₃HHHHHH-NH₂; GP₂: H-(GP)₂HHHHHH-NH₂. GR₂₀: H-(GR)₂₀HHHHHH-NH₂; GR₁₀: H-(GR)₁₀HHHHHH-NH₂; GR₆: H-(GR)₆HHHHHH-NH₂; GR₅: H-(GR)₅HHHHHH-NH₂; GR₄: H-(GR)₄HHHHHH-NH₂; GR₃: H-(GR)₃HHHHHH-NH₂; GR₂: H-(GR)₂HHHHHH-NH₂; PA₂₀: H-(PA)₂₀HHHHHH-NH₂; PA₁₀: H-(PA)₁₀HHHHHH-NH₂; PA₆: H-(PA)₆HHHHHH-NH₂; PA₅: H-(PA)₅HHHHHH-NH₂; PA₄: H-(PA)₄HHHHHH-NH₂; PA₃: H-(PA)₃HHHHHH-NH₂; PA₂: H-(PA)₂HHHHHH-NH₂; PR₂₀: H-(PR)₂₀HHHHHH-NH₂; PR₁₀: H-(PR)₁₀HHHHHH-NH₂; PR₆: H-(PR)₆HHHHHH-NH₂; PR₅: H-(PR)₅HHHHHH-NH₂; PR₄: H-(PR)₄HHHHHH-NH₂; PR₃: H-(PR)₃HHHHHH-NH₂; PR₂: H-(PR)₂HHHHHH-NH₂. 96-well microplates (Corning Incorporated, Corning, USA) were coated with dipeptide repeat protein peptides at a concentration of 50 μg/ml in coating buffer (15 mM Na₂CO₃, 35 mM NaHCO₃, pH 9.42). Non-specific binding sites were blocked for 1 h at room temperature with PBS/0.1% Tween®-20 containing 2% BSA (Sigma-Aldrich, Buchs, Switzerland). Primary antibodies were diluted to the indicated concentrations and incubated 1 h at room temperature, followed by incubation with a donkey anti-human IgG Fcγ-specific antibody conjugated with HRP (Jackson ImmunoResearch Laboratories, Inc., West Grove, USA). Binding was determined by measurement of HRP activity in a standard colorimetric assay. EC₅₀ values were estimated by non-linear regression using GraphPad Prism software (San Diego, USA).

GP6: H-(GP)6HHHHHH-NH2 [2] = target: T4, GP6: H-(GP)6HHHHHH-NH2; test: as above
T4 peptide: H-GPGPGPGPGPGPHHHHHH-NH2
Source text: as §3

GP5: H-(GP)5HHHHHH-NH2 = target: T5, GP5: H-(GP)5HHHHHH-NH2; test: as above
T5 peptide: H-GPGPGPGPGPHHHHHH-NH2
Source text: as §3

GP6: H-(GP)6HHHHHH-NH2 [3] = target: T4, GP6: H-(GP)6HHHHHH-NH2; test: indirect ELISA, His-tagged peptide coated at 50 ug/ml, antibody titrated
Protocol: as §1, §2

[4] = target: T2, BSA-coupled (GA)15 DPR protein peptide; test: indirect ELISA, BSA-coupled peptide coated, antibody titrated [also D00012 FIG. 3C]
Protocol: as §1, with “In brief, dipeptide repeat proteins were synthesized and purified by Schafer-N(Copenhagen, Denmark): (GA)₁₅: H-CHHHHHH(GA)₁₅-OH; (GP)₁₅: H-C(GP)₁₅-OH; (GR)₁₅: H-C(GR)₁₅-OH; (PA)₁₅: H-C(PA)₁₅-OH; (PR)₁₅: H—C(PR)₁₅-OH. DPR protein peptides were then conjugated via a bifunctional linker (SMCC) to bovine serum albumin (BSA). 96-well microplates” for “96-well microplates”, “coated with BSA-coupled or -uncoupled dipeptide repeat” for “coated with dipeptide repeat”, “concentration of either 5 μg/ml or 20 μg/ml in” for “concentration of 50 μg/ml in”
Target sequence in this assay (peptide, as listed by the source limits assumed, chain 1 of 2): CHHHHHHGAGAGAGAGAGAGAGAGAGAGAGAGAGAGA
Target sequence in this assay (P02769 25-607 limits assumed, chain 2 of 2): as the sequence (P02769 25-607 limits assumed) above

GA3: H-(GA)3HHHHHH-NH2 = target: T6, GA3: H-(GA)3HHHHHH-NH2; test: indirect ELISA, His-tagged peptide coated at 50 ug/ml, antibody titrated [also D00024 FIG. 7F]
T6 peptide: H-GAGAGAHHHHHH-NH2
Source text: as §3

B1: NI-308.6B11 (antibody, V domains shown)
VH: EVQLVQSGAEVKRPGASVKVSCKVSGYTLTELSMHWVRQAPGKGLEWMGGFDPEDGETVYAQKFQGRVTMTEDTSTDTAYMELSSLRSEDTALYHCATYGSSWHWNEGNEGSYYFDYWGQGTLVTVSS
VL: CDIQMTQSPSSLSASVGDRVTITCQASQDISIYLNWYQQKPGKAPKLLIYDASNLETGVPSRFSGSGSGTDFTFTISGLQPEDVARYYCQQYDDLPITFGQGTRLEIK
notes: Recombinant complete human IgG1, kappa
- EC50 (GR10: H-(GR)10HHHHHH-NH2): 1.28 nM

B2: NI-308.28G1 (antibody, V domains shown)
VH: QVQLQESGPRLVKPSETLSLTCTVAGGSVNSYYWTWIQQSPGKGLEWLGRIYIAGRTNYNPSLTSRIALSVDTSRNQLSLKLTSVTAADTAIYYCARWGAESGDYYYGVDVWGPGTLVTVSS
VL: EIVMTQSPLSLPVTPGEPASISCKSSEGLLHSNGYTYLDWYLQKPGQAPQLLIFLASNRAAGVPDRFSGSGSGTDFTLKISRVEAEDVGVYYCMQAIQSPWTFGPGTKVEIK
notes: as for B1
- EC50 [1]: 0.66 nM

B3: NI-308.5G2 (antibody, V domains shown)
VH: EVQLVQSGADLRNPGASVTVSCTASGYHFADNAINWLRQAPGQRLEWMGWINIYSGNTKYSQNFQGRVTFTRNTSASTAFMHLRSLRSEDTAVYFCARDPDSSGYYLPYFDYWGQGTLVTVSS
VL: DIQLTQSPDSLTLSLGERATINCKSSQSVFYNSNNKNYLAWYQQKPGQPPKLLMYWASTRESGVTDRFSGSGSGTDFTLTITNLQAEDVAVYYCQQFYSSPLTFGGGTKVEIK
notes: as for B1
- EC50 (GP10: H-(GP)10HHHHHH-NH2): 0.94 nM
- EC50 (GP6: H-(GP)6HHHHHH-NH2 [2]): 26.8 nM
- EC50 (GP5: H-(GP)5HHHHHH-NH2): > 200 nM

B4: NI-308.46E9 (antibody, V domains shown)
VH: QVQLQESGPGLVKPSETLSLTCTVSGASISGSTYYWGWIRQPPGKGLEYIGRIYYSGSTYYNPSLKSRATISVDTSKNQLSLTLSSVTAADTAVYYCVRPFYAGSGNSPFDYWGQGTLVTVSS
VL: CEIVLTQSPATVSVSPGERATLSCRASQSVSTNLAWYQQKPGQPPRLLIYGASTRATGIPARFSGSGSGAEFTLTISSLQSEDFVVYYCQQYNNWPPAFGGGTKVEIK
notes: as for B1
- EC50 (GP6: H-(GP)6HHHHHH-NH2 [3]): > 200 nM

B5: NI-308.15O7 (antibody, V domains shown)
VH: QVQLVESGGGVVQPGRSLRLSCAASGFTFSNHAMHWVRQAPGKGLEWVAVISYDGENTYYADSIEGRFTISRDNFKNTLFLQMYSLTADDTAMYFCARGGRRGHFTSYYLDYWGQGTLVTVSS
VL: CDIQMTQSPSSLSASVGDRVTITCRASQNIDKYLNWYQQIPGKAPKLLIYAASSLHSGVPSRFSGSGSGTDFSLTISSLQPEDFAIYYCQQSYSSFRTFGQGTKLEIK
- EC50 [4]: 0.41 nM
- binding result (GA3: H-(GA)3HHHHHH-NH2): no binding (tested: about 4x10^5 pM (last point))
